Results reported in the supplement of paper PMC12042874.
± gives the uncertainty stated by the source.

Experiment: amyloid nucleation score (Sup35N fusion, yeast selection) (log enrichment); library NNK2; higher = more nucleation; inactive = no reads after selection
Summary of the method: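 Libraries of peptides of 20 random codons fused to Sup35N were expressed in psi-negative yeast and induced 24 hours with 100 μM copper sulfate. Selection was 7 days at 30°C on medium lacking adenine and uracil, and plasmid inserts were Illumina-sequenced before and after selection. Nucleation score is the DiMSum log enrichment of output over input reads, centred on the mode score of non-aggregating sequences, and sequences with under 100 input reads were left out.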

| Substance | amyloid nucleation score |
| --- | --- |
| KFNCLGLWDEYHNSM | 0.259 ± 0.43 |
| RAYPNLENFLLWRMSNSYLC | -0.542 ± 0.63 |
| GLGRKYNMRRRLKLVFWRSD | 4.23 ± 0.084 |
| RGLLLSTMRGHIDSLRLS | inactive |
| AIDAFFLSV | -0.191 ± 0.26 |
| CKFWYLARWWIFLWSPRYK | -0.153 ± 1.1 |
| ALYRL | 0.233 ± 0.62 |
| QGRGLRYQH | 0.166 ± 0.76 |
| FSWLSPMWYMLNDRKLYGNP | 0.779 ± 0.42 |
| LGSAYSGKPHVFCS | inactive |
| KYFVINPLIPIGQMEDIKLL | -0.156 ± 0.33 |
| NSTLRSLYTVFFIRMLQMVG | -0.753 ± 0.36 |
| NLLWYKLNLNTYVACAIKWW | 0.198 ± 0.38 |
| YDEKMRVHDKYKTQPLERGR | 4.37 ± 0.1 |
| DSSLNIGVLPIVTNGLTKCD | -0.29 ± 0.28 |
| FIQVSHCYAKMPYTTVTPGA | -0.191 ± 0.79 |
| SCSRWHYESSYLYIDTLEDY | 0.347 ± 0.55 |
| WRNCYVYRTVLR | 2.36 ± 0.07 |
| WHGRWSTNRRRPPNKMCRLV | 1.06 ± 0.28 |
| IRKCICSWCVECILRNPAKA | -0.434 ± 0.4 |
| ERIFGFI | -1.45 ± 0.55 |
| VDGVSLSGEFFNTIVNNFCI | 6.08 ± 0.062 |
| LVHMLCQ | 0.893 ± 0.24 |
| SDINRVVGLPRTRLALRSKR | -0.447 ± 0.54 |
| KSISVSLLVEGAVVSLSAYI | 4.21 ± 0.11 |

| Substance | amyloid nucleation score |
| --- | --- |
| DPQRVFFWLPYMNLYQHEPF | 0.025 ± 1.1 |
| DCFPLLLNRFRPEHYVRWHR | 0.887 ± 0.57 |
| PAITFSSYQSIANYWRGPRM | 7.899 ± 0.026 |
| VSNAGSSTKDILGIHRS | -0.06 ± 1.1 |
| LKGSRNRATSDKGWKEG | 0.306 ± 0.8 |
| PRSYWRSYWAKVLDYQLIPR | 3.55 ± 0.07 |
| GLLPVGSVGVRVALVVMRVQ | 1.35 ± 0.36 |
| SWVFVWLSH | -0.256 ± 1.1 |
| MKLVECNMDGCDTNTSFGWL | -0.884 ± 0.78 |
| KTMNPYDFSLFIATIMKSLN | -0.476 ± 1.1 |
| HITRGVVPTAV | 0.655 ± 0.74 |
| LALRRDLFRVVLSNKTTSTR | 1.07 ± 0.28 |
| IKTYNGGSWGALSCIALRLI | -1.39 ± 0.78 |
| MTGSTSKMGRCFWQFICSGL | inactive |
| IHLKLRRYLDNYYLNATNCG | -0.509 ± 0.31 |
| SRKFSFAYFTRFFYVLVLIV | inactive |
| FFSVHEDRREKYLSNNV | -2.15 ± 1.1 |
| GLQYQYSGLWVR | 0.236 ± 0.44 |
| CVGSLQLHGVSRRCIRCWGR | 1.15 ± 0.4 |
| SMSYDRWKAKS | -0.446 ± 0.48 |
| AAFQSMENCCAFCSVRRQES | -0.406 ± 0.38 |
| AFYCTVC | 7.346 ± 0.043 |
| RLDMYGLLINWSSVCLYNNI | 0.257 ± 0.21 |
| HCTDGFLMAYVSFSRGMIIM | inactive |
| DIKYCRSFCWLSTIFRTLGP | 0.249 ± 0.37 |

| Substance | amyloid nucleation score |
| --- | --- |
| CYTNYIYVLAAMWTSEIRKV | inactive |
| DNELFPLYWNR | 0.309 ± 0.15 |
| RWHLFSITYLKVLDWDCCLW | 5.45 ± 0.034 |
| GITCCSMSRRFCFRGEGTEW | 3.81 ± 0.074 |
| STFSYGCSSTGAFCRLLCRM | 0.516 ± 0.64 |
| SWVEGRLDGVFWRLVLFTEN | 0.433 ± 0.74 |
| VEAIWHWVCYWSGMWSLGPG | 3.69 ± 0.057 |
| IIMFRVYVM | -0.964 ± 0.76 |
| WRMREWKWVEYCRHSVKDAL | 1.54 ± 0.31 |
| RGSFYNGRS | 0.049 ± 0.76 |
| VEMLFLSFMRPVLLGTMVAV | 0.007 ± 1.1 |
| NFQVNMFVMF | 8.986 ± 0.027 |
| VWLCCLCWVQMDLANVNLWL | 8.315 ± 0.053 |
| MMAIHVRMLARQSFGRICFM | 3.45 ± 0.098 |
| SLLGLNFCSMLAIL | 3.23 ± 0.075 |
| VCYMLRNFCDVQHKK | 0.1 ± 0.63 |
| FYWNMYGDFDFDPSAPGTNG | inactive |
| CSTLVRIR | 0.723 ± 0.46 |
| FGTRHYLYSTSHHAHLGVDM | 1.83 ± 0.21 |
| NYWCMVV | 5.24 ± 0.075 |
| GNRDMGVVNGRYVTAVTS | 0.422 ± 0.26 |
| RLFVPFVFFQAMPTEREPFH | -0.79 ± 1 |
| FLNNDRYRR | -1.67 ± 0.78 |
| LLSSWNKSYKIRTIGIIGNV | -0.848 ± 0.25 |
| VTDQVVFSEWIAADYMFDKY | 0.491 ± 0.52 |

| Substance | amyloid nucleation score |
| --- | --- |
| VWVKVLYYSRDICTLWSPGW | -0.059 ± 0.5 |
| VRDSSNYMTLFRCSNFWHTR | 6.488 ± 0.051 |
| RGTAIKILYL | 5.46 ± 0.069 |
| HVSFLIDRNTMRGLMASSNN | inactive |
| LSWYLTYTRLTSLVG | -0.097 ± 0.42 |
| NRGFFGSYGVPELQNMDQFE | 0.153 ± 0.79 |
| FKVTTFYHGLSSMKDVASSY | -0.95 ± 0.45 |
| LRSCRMSDDMK | 1.18 ± 0.34 |
| VDCTEV | 1.26 ± 0.26 |
| LNSDVVFIVPRYHNWFRSLR | inactive |
| EMSPSLMELFHACVVLVRFG | -0.051 ± 0.37 |
| CHSGVFRVKSCTEYRMGLYS | inactive |
| TGAGVNTGEFCWVDPRSDYQ | -0.161 ± 1.1 |
| IAVNMCSFFVSDLHPMRWGY | 7.495 ± 0.035 |
| IVNSNWGARRNKRAACQRES | -0.317 ± 0.79 |
| HFRVMHSFQGQYKVIFK | 2.73 ± 0.098 |
| MLYLCMFTERVDDNTFALYR | inactive |
| NNLKLCNRTMCLVYEVCVTD | -1.23 ± 0.62 |
| FEIGGHIDCETGVCCGVAVM | 4.56 ± 0.052 |
| NNDYFTEGAGKGVTLIGALG | 4.443 ± 0.041 |
| GKLSGTPWTLSGATKRALLY | -0.494 ± 0.64 |
| GSSTSGVCTGVRERAVDCGV | 0.007 ± 0.76 |
| TGRLPLFLQGLDEYPASNPE | -0.288 ± 1.1 |
| SLSCGLYGYMTNSCSYVHRT | 4.22 ± 0.053 |
| VFGWS | 0.745 ± 0.22 |

| Substance | amyloid nucleation score |
| --- | --- |
| LSRNTYWYGVEIGLVLSSCT | 0.161 ± 0.24 |
| KFTLCWRTRMAFMSPWLMRI | inactive |
| FFNMMSK | -1.72 ± 0.62 |
| TCAQYKHGTTVDSNLRSTY | -0.515 ± 0.48 |
| WIVVSSIDSFFCVSSSPQFR | inactive |
| HVSNSFKSFCN | 1.52 ± 0.2 |
| FWIDTYGGTNFKGCICIITG | 4.39 ± 0.11 |
| LNSYRPWCWY | inactive |
| SNCSKCVKVYTSPCLWSLCG | 3.46 ± 0.083 |
| NYPSVGSDIARLLRLVTRRI | -0.313 ± 0.76 |
| VLKPYM | -1.3 ± 0.54 |
| LCLTYYRDHGVLASMYFHVW | 0.529 ± 0.31 |
| NTSIQQIPLMSRLGVAFVIW | -0.781 ± 0.54 |
| LINCSSTLITIYSRYNAMYF | 5.415 ± 0.049 |
| VNRPATPFEGSQCLIIYSRV | -0.613 ± 0.45 |
| GCRRETEDVSGRLCCVVWSL | 0.206 ± 0.5 |
| SQVERVQFTGIRKWYGAGRS | 4.57 ± 0.072 |
| GVNKVT | 0.115 ± 1 |
| QYTRDFVRGTSQF | -0.949 ± 1.1 |
| NLFYLARSMLINLQMYKTER | 4.46 ± 0.08 |
| KVRLSDIPSLAMICFKRDIN | inactive |
| VFIRAGIVFQFWCNG | 7.22 ± 0.043 |
| ILLLFVPSDFRNICFE | -0.532 ± 0.29 |
| LYDGSVRQWTDEHWWVMSGG | 0.988 ± 0.28 |
| QNWVCMNRVYDLKDTYEIDL | -0.526 ± 0.35 |

| Substance | amyloid nucleation score |
| --- | --- |
| VKGISWGLRFS | inactive |
| GTCLHCGEIRS | -0.293 ± 0.29 |
| CVVVRSCI | -0.342 ± 1.1 |
| IKEFYISQNFVNSHLRLANM | -1.51 ± 1.1 |
| FMDRFLSWFCHE | 1.26 ± 0.37 |
| VICLCVLFRGSCRIKILDIV | -1.37 ± 1.1 |
| VFLVHPTFSFKNRVCLNFVW | -0.081 ± 1.1 |
| GCGCATGREDTPGNIGWMV | 0.507 ± 0.25 |
| LFAKDGLRSRLKEC | -0.033 ± 0.27 |
| NTLITRVHHDQLPRLSDLLL | 1.28 ± 0.38 |
| CPMPITRSAVFACTITCSVA | 5.99 ± 0.079 |
| LVILAGTVRIVRHGLVALQL | 0.592 ± 0.22 |
| HTVLPWYTIRYKWEGVGLTD | 0.403 ± 0.45 |
| YYIMCFSSGCDPLPQHCGWE | -0.821 ± 1.1 |
| WNTLKVAGSVGGTAVDQVAV | 1.33 ± 0.34 |
| GHYKFSIVFPVACLIDRFSF | 5.13 ± 0.089 |
| KIEVRLRVTYGYSSLVQAVG | -0.326 ± 1 |
| FFESCRLVNFELLVLSFFIG | -0.527 ± 0.28 |
| GVKAASGSSPKRGFYDWVKH | 0.307 ± 0.64 |
| KFHHGFLGELPAPEYSSESA | 0.25 ± 0.42 |
| FEIWWLVGVVFWMVSGVNTV | -0.074 ± 0.22 |
| VHLTAVWCLDRRRVRKIFIV | -0.802 ± 0.76 |
| CQSRY | -0.373 ± 1.1 |
| YVGEKRGSVSEYLLHLLSTG | inactive |
| MASGRWYSNSTYGDCMGGIA | -0.321 ± 1 |

| Substance | amyloid nucleation score |
| --- | --- |
| IIVYFVAFASTGARASK | -0.951 ± 0.54 |
| STGSWTTVKLGREGAILHAL | -0.407 ± 0.45 |
| CCVGGVPV | 2.57 ± 0.083 |
| SMQLDSFCVICGWFALVGLV | 6.67 ± 0.052 |
| LMNLVVG | -0.701 ± 0.44 |
| KHVLGWNISFFYFTFAIG | inactive |
| SMKNK | 0.185 ± 0.4 |
| LVMWNRCSIKRVNREMVHSF | 0.538 ± 0.3 |
| DRSSS | 0.447 ± 0.31 |
| VSCAESVGIYINYWFLNCQE | 8.702 ± 0.03 |
| ISYKAWMFRGRMNSVGISRY | -0.299 ± 0.63 |
| RALRVRILYCEARRMCFMAN | 0.236 ± 1.1 |
| TYADW | 0.902 ± 0.3 |
| KDTMK | -0.001 ± 0.24 |
| LLFWLIRETRSLLSIYLVGT | 0.198 ± 0.46 |
| FTRTWLCIHAEYARCLGTCV | 5.05 ± 0.053 |
| DSFLLTPDLRDMYEL | -0.681 ± 0.26 |
| FFSMRVIIMFERNSSVFAVQ | 4.1 ± 0.11 |
| RTCSRGSFTYMEIGNVGRGC | 0.275 ± 0.5 |
